Consider 2 molecules from patent US20010046966, “Inhibition of adipogenesis” (published 2001).

Data set [1] has as its target T1, GATA-2 (UniProt O09100 O09100:1-480). The data set is described as follows: competition; 1 ug, no competition. Conditions: tags: GST fusion (pGEX-2T). As to the method:
(§1) FIG. 5B is a photograph of an electrophoretic gel showing the results of an mobility shift assay. Based on the result of Dnase I footprinting, two double stranded DNA fragment (nucleotide −199 to −85 and nucleotide −22 to +9, respectively) were end-labeled with 32P and electrophoretic mobility shift assays were performed with GST-GATA-2 or GST-GATA-3. For each protein-DNA reaction, specific (S) or non-specific (N) DNA competitors were also included in the experiments.
(§2) After confirming the requirement for GATA DNA-binding activity, experiments were carried out to determine whether this activity requires direct interaction with the PPAR-gamma 2 promoter. The proximal PPAR-gamma 2 promoter region was evaluated by deletion analysis. […] To determine if and at what sites GATA factors directly interact with DNA on this fragment, DNase I footprinting experiments were carried out (FIG. 5A) combined with elecrophoretic mobility shift assays (FIG. 5B) using recombinant GATA-2 and GATA-3 fusion proteins. The electrophoretic mobility shift assays were performed in 20 ul reaction volume. 2 ul GST-GATA fusion protein was incubated with 0.5 ug poly[d(I-C)] and ³²p labeled DNA probe (4×10⁴ cpm) in the presence or absence of 1 ug of specific or non-specific competitors, at room temperature for 20 min. […]

The target of data set [2] is T2, GATA-3 (UniProt P23772 P23772:1-443). The data set is described as follows: competition; 1 ug, no competition. Conditions: tags: GST fusion. As to the method:
as §1, §2

Data set [3] addresses T1, GATA-2. The data set is described as follows: competition; 1 ug competitor competed complex. Particulars: tags: GST fusion (pGEX-2T). As to the method:
as §1, §2

Data set [4] concerns the target T2, GATA-3. Description: competition; 1 ug competitor competed complex. Conditions: tags: GST fusion. As to the method:
as §1, §2

T2 sequence (P23772 whole entry, the tested form may be a part, one chain of several): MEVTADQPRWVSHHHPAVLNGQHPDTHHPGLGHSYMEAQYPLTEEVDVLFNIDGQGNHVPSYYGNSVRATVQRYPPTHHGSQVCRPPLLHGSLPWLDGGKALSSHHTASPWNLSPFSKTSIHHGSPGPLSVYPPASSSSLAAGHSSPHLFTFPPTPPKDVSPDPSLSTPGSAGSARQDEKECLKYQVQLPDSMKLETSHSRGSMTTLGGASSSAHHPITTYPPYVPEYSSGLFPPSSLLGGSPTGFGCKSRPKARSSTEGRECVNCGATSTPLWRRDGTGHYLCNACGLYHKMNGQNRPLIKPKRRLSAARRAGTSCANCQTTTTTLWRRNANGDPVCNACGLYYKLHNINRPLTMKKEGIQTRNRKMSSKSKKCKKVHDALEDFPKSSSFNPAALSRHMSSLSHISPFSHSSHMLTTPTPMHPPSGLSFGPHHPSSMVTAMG
T1 sequence (O09100 whole entry, the tested form may be a part, one chain of several): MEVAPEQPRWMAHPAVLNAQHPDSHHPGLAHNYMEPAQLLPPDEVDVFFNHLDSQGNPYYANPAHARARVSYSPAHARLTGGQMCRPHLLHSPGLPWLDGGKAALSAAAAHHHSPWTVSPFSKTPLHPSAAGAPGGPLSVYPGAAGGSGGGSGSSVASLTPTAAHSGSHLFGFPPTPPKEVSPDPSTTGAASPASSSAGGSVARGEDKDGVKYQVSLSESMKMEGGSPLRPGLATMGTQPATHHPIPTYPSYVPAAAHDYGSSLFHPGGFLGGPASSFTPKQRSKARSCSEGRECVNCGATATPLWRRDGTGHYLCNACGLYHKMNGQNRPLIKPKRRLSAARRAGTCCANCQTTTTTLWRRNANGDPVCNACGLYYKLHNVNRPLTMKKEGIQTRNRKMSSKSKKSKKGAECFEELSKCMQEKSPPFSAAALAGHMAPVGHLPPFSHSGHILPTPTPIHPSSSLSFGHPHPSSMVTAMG

B1: non-specific competitor (dsDNA)
DNA 1: GATCGAACTGACCGCCCGCGGCCCGT
DNA 2: ACGGGCCGCGGGCGGTCAGTTCGATC
Regarding B1, the binding result with GATA-2 [1] and with GATA-3 [2] was “no binding” throughout.

B2: specific GATA competitor (dsDNA)
DNA 1: GATCTCCGGCAACTGATAAGGATTCCCTG
DNA 2: CAGGGAATCCTTATCAGTTGCCGGAGATC
On to B2, for which the binding result in the data set with GATA-2 [3] and with GATA-3 [4] was “binds” each time.
